In PMC9036127, “The nuclease activity of DNA2 promotes exonuclease 1–independent mismatch repair” (The Journal of Biological Chemistry, 2022):

Target: T1, Human MutSα (MSH2-MSH6 heterodimer) (human, UniProt P43246 1-934; P52701 1-1360)
T1 construct: MSH2, human, subunit of MutSα; MSH6, human, subunit of MutSα
Assay: co-IP; purified proteins; MutSα- or MutLα-containing agarose beads (antibodies against MSH2 or MLH1), DNA2 in solution; for MutSα 30-μl mixtures with MutSα (3.4 pmol) and DNA2 (3.4 pmol); eluted fractions analyzed by immunoblotting
Details: both partners purified

T1 sequence (P43246 whole entry, chain 1 of 2): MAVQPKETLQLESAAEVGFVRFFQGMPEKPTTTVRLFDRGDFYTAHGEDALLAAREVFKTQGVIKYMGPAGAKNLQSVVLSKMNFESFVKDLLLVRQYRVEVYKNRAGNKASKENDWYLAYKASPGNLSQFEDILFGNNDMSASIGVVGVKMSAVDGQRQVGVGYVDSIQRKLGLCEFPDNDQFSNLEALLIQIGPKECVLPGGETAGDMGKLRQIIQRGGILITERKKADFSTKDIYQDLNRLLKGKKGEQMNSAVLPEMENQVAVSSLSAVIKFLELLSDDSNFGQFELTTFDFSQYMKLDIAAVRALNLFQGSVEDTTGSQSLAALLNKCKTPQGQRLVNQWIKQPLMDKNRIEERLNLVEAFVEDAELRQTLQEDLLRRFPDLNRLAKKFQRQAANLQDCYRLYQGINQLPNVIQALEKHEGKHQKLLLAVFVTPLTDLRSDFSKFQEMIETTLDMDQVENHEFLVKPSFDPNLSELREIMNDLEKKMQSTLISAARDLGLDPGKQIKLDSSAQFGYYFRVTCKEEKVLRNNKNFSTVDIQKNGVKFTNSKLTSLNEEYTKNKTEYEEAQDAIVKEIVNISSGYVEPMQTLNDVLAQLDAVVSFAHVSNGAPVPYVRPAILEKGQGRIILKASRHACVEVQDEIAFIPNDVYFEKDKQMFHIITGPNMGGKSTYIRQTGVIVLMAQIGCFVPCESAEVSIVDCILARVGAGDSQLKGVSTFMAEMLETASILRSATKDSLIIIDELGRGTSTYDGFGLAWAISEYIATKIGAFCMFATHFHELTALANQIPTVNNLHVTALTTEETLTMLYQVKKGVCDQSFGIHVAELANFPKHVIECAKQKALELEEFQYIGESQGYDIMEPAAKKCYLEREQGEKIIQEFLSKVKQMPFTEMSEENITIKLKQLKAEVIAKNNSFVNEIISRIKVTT
T1 sequence (P52701 whole entry, chain 2 of 2): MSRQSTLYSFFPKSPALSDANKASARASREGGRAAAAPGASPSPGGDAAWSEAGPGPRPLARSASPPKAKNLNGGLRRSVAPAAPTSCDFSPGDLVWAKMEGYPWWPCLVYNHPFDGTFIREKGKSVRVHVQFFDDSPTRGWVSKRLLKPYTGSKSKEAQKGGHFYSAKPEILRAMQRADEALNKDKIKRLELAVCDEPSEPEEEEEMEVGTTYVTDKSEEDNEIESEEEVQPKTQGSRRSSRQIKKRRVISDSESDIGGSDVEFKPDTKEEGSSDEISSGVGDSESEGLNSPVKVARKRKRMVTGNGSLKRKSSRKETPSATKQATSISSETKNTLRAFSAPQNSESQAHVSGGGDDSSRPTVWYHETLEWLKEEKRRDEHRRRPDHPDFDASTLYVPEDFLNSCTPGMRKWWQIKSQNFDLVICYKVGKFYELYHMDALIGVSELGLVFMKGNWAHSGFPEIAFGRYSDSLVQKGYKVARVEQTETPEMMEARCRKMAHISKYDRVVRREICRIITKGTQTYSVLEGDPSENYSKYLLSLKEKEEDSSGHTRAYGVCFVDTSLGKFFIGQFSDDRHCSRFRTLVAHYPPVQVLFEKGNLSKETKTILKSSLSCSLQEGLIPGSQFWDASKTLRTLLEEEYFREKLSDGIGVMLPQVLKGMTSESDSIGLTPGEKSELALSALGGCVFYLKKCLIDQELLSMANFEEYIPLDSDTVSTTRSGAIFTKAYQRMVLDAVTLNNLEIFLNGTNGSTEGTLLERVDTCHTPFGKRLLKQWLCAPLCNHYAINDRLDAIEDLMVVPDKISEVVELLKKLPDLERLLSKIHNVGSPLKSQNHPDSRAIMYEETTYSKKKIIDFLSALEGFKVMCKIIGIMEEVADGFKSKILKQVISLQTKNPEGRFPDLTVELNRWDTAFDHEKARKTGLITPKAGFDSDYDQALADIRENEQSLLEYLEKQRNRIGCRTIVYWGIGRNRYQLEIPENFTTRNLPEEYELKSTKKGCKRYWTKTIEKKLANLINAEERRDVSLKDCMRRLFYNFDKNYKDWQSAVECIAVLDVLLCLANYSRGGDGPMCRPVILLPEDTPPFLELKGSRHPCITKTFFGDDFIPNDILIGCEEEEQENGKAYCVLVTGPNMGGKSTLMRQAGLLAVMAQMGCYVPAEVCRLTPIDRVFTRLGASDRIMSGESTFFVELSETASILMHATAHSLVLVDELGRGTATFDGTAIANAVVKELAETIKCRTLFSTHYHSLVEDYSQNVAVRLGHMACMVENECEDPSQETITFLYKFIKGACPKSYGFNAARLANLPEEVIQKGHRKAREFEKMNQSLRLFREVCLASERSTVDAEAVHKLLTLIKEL

B1: Human DNA2 nuclease/helicase (enzyme, UniProt P51530 1-1060, looked up)
chain: MEQLNELELLMEKSFWEEAELPAELFQKKVVASFPRTVLSTGMDNRYLVLAVNTVQNKEGNCEKRLVITASQSLENKELCILRNDWCSVPVEPGDIIHLEGDCTSDTWIIDKDFGYLILYPDMLISGTSIASSIRCMRRAVLSETFRSSDPATRQMLIGTVLHEVFQKAINNSFAPEKLQELAFQTIQEIRHLKEMYRLNLSQDEIKQEVEDYLPSFCKWAGDFMHKNTSTDFPQMQLSLPSDNSKDNSTCNIEVVKPMDIEESIWSPRFGLKGKIDVTVGVKIHRGYKTKYKIMPLELKTGKESNSIEHRSQVVLYTLLSQERRADPEAGLLLYLKTGQMYPVPANHLDKRELLKLRNQMAFSLFHRISKSATRQKTQLASLPQIIEEEKTCKYCSQIGNCALYSRAVEQQMDCSSVPIVMLPKIEEETQHLKQTHLEYFSLWCLMLTLESQSKDNKKNHQNIWLMPASEMEKSGSCIGNLIRMEHVKIVCDGQYLHNFQCKHGAIPVTNLMAGDRVIVSGEERSLFALSRGYVKEINMTTVTCLLDRNLSVLPESTLFRLDQEEKNCDIDTPLGNLSKLMENTFVSKKLRDLIIDFREPQFISYLSSVLPHDAKDTVACILKGLNKPQRQAMKKVLLSKDYTLIVGMPGTGKTTTICTLVRILYACGFSVLLTSYTHSAVDNILLKLAKFKIGFLRLGQIQKVHPAIQQFTEQEICRSKSIKSLALLEELYNSQLIVATTCMGINHPIFSRKIFDFCIVDEASQISQPICLGPLFFSRRFVLVGDHQQLPPLVLNREARALGMSESLFKRLEQNKSAVVQLTVQYRMNSKIMSLSNKLTYEGKLECGSDKVANAVINLRHFKDVKLELEFYADYSDNPWLMGVFEPNNPVCFLNTDKVPAPEQVEKGGVSNVTEAKLIVFLTSIFVKAGCSPSDIGIIAPYRQQLKIINDLLARSIGMVEVNTVDKYQGRDKSIVLVSFVRSNKDGTVGELLKDWRRLNVAITRAKHKLILLGCVPSLNCYPPLEKLLNHLNSEKLIIDLPSREHESLCHILGDFQRE
notes: DNA2 nuclease/helicase, human; wild type; source: insect Sf9 cells (baculovirus, codon-optimized gene), purified (α-Flag M2 beads, MonoS column)
Q: Does B1 bind?
A: binds
